{"source": "patent US20030082643A1", "about": "(Bristol-Myers Squibb, published 2003)", "binders": {"B1": {"name": "human monoclonal antibody (HuMAb) 8.2 (antibody, V domains shown)", "VH": "QVQLVESGGGVVQPGRSLRLSCAASGFTFSSYAMHWVRQAPGKGLEWVAVISYDGRNKDYADSVKGRFTISRDNSKNTLYLQMNSLRAEDTAVHYCARLDWGYDAFDIWGQGTMVTVSS", "VL": "not shown", "notes": "Human IgG1 kappa from hybridoma; also called 8D2"}}, "key": {"soluble recombinant CD89": {"biological_target": "T1, soluble recombinant CD89 (human, UniProt P24071 22-227, limits assumed)", "T1 construct": "Soluble recombinant CD89, coated on ELISA plates, immobilised on BIAcore chips or in solution; also called sCD89; recombinant soluble CD89 antigen", "T1 sequence (P24071 22-227 limits assumed)": "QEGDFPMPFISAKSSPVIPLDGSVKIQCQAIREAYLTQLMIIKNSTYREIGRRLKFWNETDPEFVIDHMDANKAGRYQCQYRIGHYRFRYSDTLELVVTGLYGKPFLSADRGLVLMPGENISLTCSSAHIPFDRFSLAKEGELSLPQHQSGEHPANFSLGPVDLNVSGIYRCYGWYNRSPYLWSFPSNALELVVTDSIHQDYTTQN", "assay": "ELISA", "procedure": "Solid-phase ELISA based assays were employed in the binding studies. Briefly, soluble recombinant CD89 in PBS was coated onto 96-well microtiter plates (1 μg/ml) and incubated overnight at room temperature. The plates were then washed with PBS-0.2%Tween-20 (PBST) and blocked with chicken serum albumin in PBST for 1 hour at room temperature. Supernatants from the anti-CD89 producing hybridomas or purified antibody (in PBS) were added to the wells and incubated for 2 hours at room temperature. The plates were washed with PBST as above and then incubated with 50 μl of HRP-conjugated goat-anti-human for 1 hour at room temperature. After washing, 100 μl of ABTS (150 mg 2,2′-azino-bis (3-ethylbenzthiazoline-6-sulfonic acid in 500 ml of 0.1 M citric acid, pH 4.35)/H₂O₂ (10 μl 30% H₂O₂ per 10 ml of ABTS solution) chromagen/substrate solution was added to each well and the samples read with a microplate reader at a wavelength of 405 nm.\nHybridomas which produced human IgG that bound CD89 were further characterized for isotype using ELISA (Human Kappa) (same protocol described above). […] Purified antibodies were extensively dialyzed against 0.3 M sodium carbonate buffer, pH 9.5, for labeling with […] (FITC). […]"}, "[1]": {"biological_target": "T2, human CD89 expressed on cells (human, UniProt P24071 22-287)", "T2 construct": "whole, on cells; also called FcalphaRI; 2a1.6/CD89 cells", "T2 sequence (P24071 22-287)": "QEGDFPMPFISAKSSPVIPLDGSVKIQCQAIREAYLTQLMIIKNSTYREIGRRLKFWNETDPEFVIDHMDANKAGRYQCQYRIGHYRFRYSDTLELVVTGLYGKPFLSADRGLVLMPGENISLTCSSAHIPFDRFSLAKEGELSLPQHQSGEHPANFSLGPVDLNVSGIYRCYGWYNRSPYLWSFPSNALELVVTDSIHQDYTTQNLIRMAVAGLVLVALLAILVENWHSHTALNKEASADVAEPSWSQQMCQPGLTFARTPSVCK", "assay": "flow cytometry on 2a1.6/CD89 cells, human PMNL and PMNL of human-CD89 transgenic mice"}}}
{"binder": "B1", "values": [{"measurement": "binding result", "setting": "soluble recombinant CD89", "value": "binds"}, {"measurement": "binding result", "setting": "[1]", "value": "binds"}]}
